{"source": "paper PMC7347513", "about": "(Cancer Immunology, Immunotherapy : CII, 2020)", "binders": {"B1": {"name": "C1-ETA´ immunotoxin (HLA A*0201-restricted, HCMV-specific Fab antibody C1 coupled to Pseudomonas Exotoxin A) (Fab, V domains shown)", "VH": "EVQLVQSGAEVKKPGSSVKVSCKASGGTFSSYAISWVRQAPGQGLEWMGGIIPIFGTANYAQKFQGRVTITADESTSTAYMELSSLRSEDTAVYYCARGLAAPDYFDYWGQGTLVTVSS", "VL": "QSVVTQPPSVSGAPGQRVTISCTGSSSNIGAGYDVHWYQQLPGTAPKLLIYGNSNRPSGVPDRFSGSKSGTSASLAITGLQAEDEADYYCQSYDSSLSGPFYVFGTGTKVTVL", "notes": "source: E. coli TG1"}, "B2": {"name": "Fab A6 (Fab, V domains shown)", "VH": "EVQLVQSGAEVKKPGASVKVSCKASGYTFTSYYMHWVRQSPGQGLEWMGIINPSGGSTSYAQKFQGRVTMTRDTSTSTVYMELSSLRSEDTAVYYCARNGYCSSTSCYDAFDIWGQGTMVTVSS", "VL": "QSALTQPASVSGSPGQSITISCTGTSSDVGGYNYVSWYQQHPGKAPKVLIYDVNQRISGVPDRFSGSKSGNTASLTISGLQAEDEADYYCCSYAGSSSWVFGGGTRLTVL", "notes": "source: E. coli TG1, purified (IMAC, Talon beads)"}, "B3": {"name": "Fab C5 (Fab, V domains shown)", "VH": "EVQLVQSGAEVKRPGASVKVSCKASGYTFTNYDINWVRQATGQGLEWMGWMNPNSGNTGYAQKFQGRVTITADKSTSTAYMELSSLRSEDTAVYYCARQGRLRFLEWYMFDPWGQGTLVTVSS", "VL": "DVVMTQSPLSLPVTPGEPASISCRSSQSLLHSNGYNYLDWYLQKPGQSPQLLIYLGSIRASGVPDRVTGSGSGTDFTLQISRVEAEDVGVYYCMQGLQTPYTFGQGTKLEIK", "notes": "as for B2"}, "B4": {"name": "biotinylated Fab A6 (Fab, V domains shown)", "VH": "B2 VH", "VL": "B2 VL", "notes": "source: E. coli TG1, biotinylated in vivo, purified (IMAC, Talon beads)"}, "B5": {"name": "biotinylated Fab F3 (Fab, V domains shown)", "VH": "QVQLVQSGAEVKKPGASVKVSCKASGYTFTSYYMHWVRQAPGQGLEWMGIINPSGGSTSYAQKFQGRVTMTRDTSTSTVYMELSSLRSEDTAVYYCASGITGAHDYWGQGTLVTVSS", "VL": "B1 VL with G52E, N55I, S72A, D87E, S95N, F101N, Y102W, T106G, V110L", "notes": "as for B4"}, "B6": {"name": "biotinylated Fab C1 (Fab, V domains shown)", "VH": "B1 VH", "VL": "B1 VL", "notes": "as for B4"}, "B7": {"name": "biotinylated Fab A11 (Fab, V domains shown)", "VH": "EVQLVQSGAEVKRPGASVKVSCKASGYTFTSYGIGWVRQAPGQGLEWMGWISAYSGNTNYAQNFQGRITMTTDTSTSTAYMELRSLRSDDTAVYYCARDFGKWDLPMYGMDVWGQGTTVTVSS", "VL": "QSVLTQPPSVSVAPGGTARISCGGNNIGTKNVHWYQQKPGQAPVLVMYYNSDRPAGIPERFSGSNSGNTATLTITRVEPGDEADYYCQVWDDRRDHYVFGTGTEVTVL", "notes": "as for B4"}, "B8": {"name": "biotinylated Fab A9 (Fab, V domains shown)", "VH": "B7 VH with K12R, R13N, Y32H, G35N, V37L, F64L, G66D, I68V, T69S", "VL": "QSVLTQPPSVSAAPGQRVTISCSGSSSDIGKSGKNYVAWYQQLPGMAPKLLIHDTIKRPSGIPDRFSASKSGTSATLDITGLQTGDEGDYYCGTWNNNLSAYVFGTGTTITVL", "notes": "as for B4"}, "B9": {"name": "biotinylated Fab C7 (Fab, V domains shown)", "VH": "EVQLVQSGAEVKKPGASVKVSCKASGYTFTSYYMHWVRQAPGQGLEWMGIINPSDGSTSYAQKFQGRVTMTRDTSTSTAYMELSSLRSEDTAVYYCARYIGIMDVWGQGTTVTVSS", "VL": "not shown", "notes": "as for B4"}, "B10": {"name": "biotinylated Fab D10 (Fab, V domains shown)", "VH": "EVQLVQSGGGVVQPGRSLRLSCAASGFTFSSYGMHWVRQAPGKGLEWVAVISYDGTNTDYADSVKGRFTISRDNSKNTLYLQMNSLRAEDTAVYYCARARGIGVSGTLYFDFWGQGTLVTVSS", "VL": "EIVMTQSPGTLSLSPGERATLSCRASQSVSSSYLAWYQQKPGQAPRLLIYGASTRATGIPDRFSGSGSGTDFTLTINRLEPEDFAVYYCQQYGSSPGTFGQGTRLEIK", "notes": "as for B4"}, "B11": {"name": "Fab F3 (Fab, V domains shown)", "VH": "B5 VH", "VL": "B1 VL with G52E, N55I, S72A, D87E, S95N, F101N, Y102W, T106G, V110L", "notes": "as for B2"}, "B12": {"name": "Fab C1 (Fab, V domains shown)", "VH": "B1 VH", "VL": "B1 VL", "notes": "as for B2"}, "B13": {"name": "Fab A6 tetramer (Fab, V domains shown)", "VH": "B2 VH", "VL": "B2 VL", "notes": "copies: 4 + 4"}, "B14": {"name": "Fab F3 tetramer (Fab, V domains shown)", "VH": "B5 VH", "VL": "B1 VL with G52E, N55I, S72A, D87E, S95N, F101N, Y102W, T106G, V110L", "notes": "copies: 4 + 4"}, "B15": {"name": "Fab C1 tetramer (Fab, V domains shown)", "VH": "B1 VH", "VL": "B1 VL", "notes": "copies: 4 + 4"}, "B16": {"name": "Fab C7 tetramer (Fab, V domains shown)", "VH": "B9 VH", "VL": "not shown", "notes": "copies: 4 + 4"}, "B17": {"name": "Fab A11 (Fab, V domains shown)", "VH": "B7 VH", "VL": "B7 VL", "notes": "as for B2"}, "B18": {"name": "Fab A9 (Fab, V domains shown)", "VH": "B7 VH with K12R, R13N, Y32H, G35N, V37L, F64L, G66D, I68V, T69S", "VL": "B8 VL", "notes": "as for B2"}, "B19": {"name": "Fab C7 (Fab, V domains shown)", "VH": "B9 VH", "VL": "not shown", "notes": "as for B2"}, "B20": {"name": "Fab D10 (Fab, V domains shown)", "VH": "B10 VH", "VL": "B10 VL", "notes": "as for B2"}}, "key": {"[1]": {"molecular_target": "T1, HLA A*0201 on MRC-5 cells loaded with control peptide 13 (…, Trypanosoma cruzi KMP-11) (human HLA-A*02:01 and B2M; Trypanosoma …, strain)", "T1 construct": "copies: + +", "assay": "flow cytometry on cells", "settings": "one partner purified"}, "[2]": {"molecular_target": "T2, HLA A*0201 presenting the HCMV pp65 peptide […], on cells (human HLA-A*02:01 and B2M; HCMV pp65 …, strain)", "T2 construct": "copies: + +", "assay": "flow cytometry on cells", "settings": "one partner purified"}, "[3]": {"molecular_target": "T3, biotinylated HLA A*0101/HCMV pp65 peptide […] complex (human HLA-A*01:01 and B2M; HCMV pp65 …, strain, biotin (in vivo, BirA, AviTag))", "T3 construct": "copies: + +", "assay": "ELISA", "settings": "both partners purified"}, "[4]": {"molecular_target": "T4, biotinylated HLA B*3501/HCMV pp65 peptide … complex (Homo sapiens HLA-B*35:01 and B2M; HCMV …, strain, biotin (in vivo, BirA, AviTag))", "T4 construct": "copies: + +", "assay": "ELISA", "settings": "both partners purified"}, "[5]": {"molecular_target": "T5, HLA A*0101 presenting HCMV pp65 peptide […] on cells (human HLA-A*01:01 and B2M; HCMV pp65 …, strain)", "T5 construct": "copies: + +", "assay": "flow cytometry on cells", "settings": "one partner purified"}, "[6]": {"molecular_target": "T6, HLA A*0201 presenting HCMV pp65 peptide […] on cells (human HLA-A*02:01 and B2M; HCMV pp65 …, strain)", "T6 construct": "copies: + +", "assay": "flow cytometry on cells", "settings": "one partner purified"}, "[7]": {"molecular_target": "T7, HLA B*0702 presenting HCMV pp65 peptide … on cells (Homo sapiens HLA-B*07:02/B2M; HCMV pp65 …, strain)", "T7 construct": "copies: + +", "assay": "flow cytometry on cells", "settings": "one partner purified"}, "[8]": {"molecular_target": "T8, biotinylated HLA A*0201/HCMV pp65 peptide […] complex (human HLA-A*02:01 and B2M; HCMV pp65 …, strain, biotin (in vivo, BirA, AviTag))", "T8 construct": "copies: + +", "assay": "ELISA", "settings": "both partners purified"}, "[9]": {"molecular_target": "T9, biotinylated HLA B*0702/HCMV pp65 peptide … complex (Homo sapiens HLA-B*07:02/B2M; HCMV pp65 …, strain, biotin (in vivo, BirA, AviTag))", "T9 construct": "copies: + +", "assay": "ELISA", "settings": "both partners purified"}}, "note": "Positions count from the first letter of the chain named.", "data": [{"binder": "B1", "values": [{"measurement": "binding result", "setting": "[1]", "value": "no binding (tested: 50 µg/ml)"}, {"measurement": "binding result", "setting": "[2]", "value": "binds"}]}, {"binder": "B2", "values": [{"measurement": "binding result", "setting": "[3]", "value": "binds"}]}, {"binder": "B3", "values": [{"measurement": "binding result", "setting": "[4]", "value": "binds"}]}, {"binder": "B4", "values": [{"measurement": "binding result", "setting": "[5]", "value": "binds"}]}, {"binder": "B5", "values": [{"measurement": "binding result", "setting": "[5]", "value": "binds"}]}, {"binder": "B6", "values": [{"measurement": "binding result", "setting": "[6]", "value": "binds"}]}, {"binder": "B7", "values": [{"measurement": "binding result", "setting": "[6]", "value": "binds"}]}, {"binder": "B8", "values": [{"measurement": "binding result", "setting": "[6]", "value": "binds"}]}, {"binder": "B9", "values": [{"measurement": "binding result", "setting": "[7]", "value": "binds"}]}, {"binder": "B10", "values": [{"measurement": "binding result", "setting": "[7]", "value": "binds"}]}, {"binder": "B11", "values": [{"measurement": "binding result", "setting": "[3]", "value": "binds"}]}, {"binder": "B12", "values": [{"measurement": "binding result", "setting": "[8]", "value": "binds"}]}, {"binder": "B13", "values": [{"measurement": "binding result", "setting": "[5]", "value": "binds"}]}, {"binder": "B14", "values": [{"measurement": "binding result", "setting": "[5]", "value": "binds"}]}, {"binder": "B15", "values": [{"measurement": "binding result", "setting": "[6]", "value": "binds"}]}, {"binder": "B16", "values": [{"measurement": "binding result", "setting": "[7]", "value": "binds"}]}, {"binder": "B17", "values": [{"measurement": "binding result", "setting": "[8]", "value": "binds"}]}, {"binder": "B18", "values": [{"measurement": "binding result", "setting": "[8]", "value": "binds"}]}, {"binder": "B19", "values": [{"measurement": "binding result", "setting": "[9]", "value": "binds"}]}, {"binder": "B20", "values": [{"measurement": "binding result", "setting": "[9]", "value": "binds"}]}]}
